Experiments:
PD-L1 = molecular target: T1, PD-L1 (human, UniProt Q9NZQ7 19-238, limits assumed); test: FCM or ELISA, graded
T1 construct: On Raji cells expressing human PD-L1 in the reporter assay

PD-1 = molecular target: T2, PD-1 (human, UniProt Q15116 25-167, limits assumed); test: FCM or ELISA, graded
T2 construct: On Jurkat T cells expressing human PD-1 in the reporter assay
T2 sequence (Q15116 25-167 limits assumed): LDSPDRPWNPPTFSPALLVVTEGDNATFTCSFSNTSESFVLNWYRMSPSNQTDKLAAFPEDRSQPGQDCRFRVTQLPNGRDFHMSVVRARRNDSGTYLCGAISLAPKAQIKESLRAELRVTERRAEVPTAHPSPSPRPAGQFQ

T1 sequence (Q9NZQ7 19-238 limits assumed): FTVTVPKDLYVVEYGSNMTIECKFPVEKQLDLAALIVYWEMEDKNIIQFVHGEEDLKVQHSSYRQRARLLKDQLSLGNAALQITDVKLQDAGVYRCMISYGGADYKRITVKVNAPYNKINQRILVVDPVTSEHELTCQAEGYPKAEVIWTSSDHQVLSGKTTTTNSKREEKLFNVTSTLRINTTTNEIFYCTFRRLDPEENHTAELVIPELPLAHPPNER

B1: Ly2846 (multi-specific antibody)
chain 1: QVQLVQSGAEVKKPGASVKVSCKASGYTFTSYVMHWVRQKPGQGLEWIGYINPYNEGTESTDKFKGRATMTSDKSTSTVYMELSSLRSEDTAVYYCASIYYGYEGTYFGVWGQGTLVTVSSASTKGPSVFPLAPSSKSTSGGTAALGCLVKDYFPEPVTVSWNSGALTSGVHTFPAVLQSSGLYSLSSVVTVPSSSLGTQTYICNVNHKPSNTKVDKKVEPKSCGGGGSGGGGSGGGGSGGGGSEVQLVESGGGLVQPGGSLRLSCAASGFTFSTYAMNWVRQAPGKGLEWVGRIRSKYNNYATYYADSVKGRFTISRDDSKNSLYLQMNSLKTEDTAVYYCVRHGNFGNSYVSWFAYWGQGTLVTVSSGGGGSDKTHTCPPCPAPELLGPSVFLFPPKPKDTLMISRTPEVTCVVVDVSHEDPEVKFNWYVDGVEVHNAKTKPREEQYNSTYRVVSVLTVLHQDWLNGKEYKCKVSNKALGAPIEKTISKAKGQPREPQVYTLPPSREEMTKNQVSLWCLVKGFYPSDIAVEWESNGQPENNYKTTPPVLDSDGSFFLYSKLTVDKSRWQQGNVFSCSVMHEALHNHYTQKSLSLSPGKGGGGSGGGGSGGGGSGGGGSQVQLVQSGAEVKKPGASVKVSCKASGYTFTDFWMSWVRQAPGQGLEWMGQIYPNTGTTHSNEKFKGRVTMTRDTSTSTVYMELSSLRSEDTAVYYCARSYHISTTPNWFAYWGQGTLVTVSS
chain 2: QVQLVQSGAEVKKPGASVKVSCKASGYTFTSYVMHWVRQKPGQGLEWIGYINPYNEGTESTDKFKGRATMTSDKSTSTVYMELSSLRSEDTAVYYCASIYYGYEGTYFGVWGQGTLVTVSSASTKGPSVFPLAPSSKSTSGGTAALGCLVKDYFPEPVTVSWNSGALTSGVHTFPAVLQSSGLYSLSSVVTVPSSSLGTQTYICNVNHKPSNTKVDKKVEPKSCGGGGSGGGGSGGGGSGGGGSQAVVTQEPSLTVSPGGTVTLTCRSSTGAVTTSNYANWVQQKPGQAPRGLIGGTNKRAPWTPARFSGSLLGGKAALTITGAQAEDEADYYCALWYSNLWVFGGGTKLTVLGGGGSDKTHTCPPCPAPELLGPSVFLFPPKPKDTLMISRTPEVTCVVVDVSHEDPEVKFNWYVDGVEVHNAKTKPREEQYNSTYRVVSVLTVLHQDWLNGKEYKCKVSNKALGAPIEKTISKAKGQPREPQVYTLPPSREEMTKNQVSLSCAVKGFYPSDIAVEWESNGQPENNYKTTPPVLDSDGSFFLVSKLTVDKSRWQQGNVFSCSVMHEALHNRFTQKSLSLSPGKGGGGSGGGGSGGGGSGGGGSDIQMTQSPSSLSASVGDRVTITCKASQNVYKKLEWYQQKPGKVPKVLIYHTNILQTGVPSRFSGSGSGTDYTLTISSLQPEDVATYYCYQWNSGPTFGGGTKVEIK
chain 3: EIVLTQSPATLSLSPGERATLSCRASSSVSYMHWYQQKPGQAPRPWIYATSNLASGIPARFSGSRSGTDYTLTISSLEPEDFAVYYCQQWSSNTLTFGGGTKVEIKRTVAAPSVFIFPPSDEQLKSGTASVVCLLNNFYPREAKVQWKVDNALQSGNSQESVTEQDSKDSTYSLSSTLTLSKADYEKHKVYACEVTHQGLSSPVTKSFNRGEC
notes: anti-B7H3/CD3/PD-L1
Question: Does B1 bind (PD-L1)?
Answer: binds

B2: Ly2904 (multi-specific antibody)
chain 1: QVQLVQSGAEVKKPGASVKVSCKASGYTFTSYVMHWVRQKPGQGLEWIGYINPYNEGTESTDKFKGRATMTSDKSTSTVYMELSSLRSEDTAVYYCASIYYGYEGTYFGVWGQGTLVTVSSASTKGPSVFPLAPSSKSTSGGTAALGCLVKDYFPEPVTVSWNSGALTSGVHTFPAVLQSSGLYSLSSVVTVPSSSLGTQTYICNVNHKPSNTKVDKKVEPKSCGGGGSGGGGSGGGGSGGGGSEVQLVESGGGLVQPGGSLRLSCAASGFTFSTYAMNWVRQAPGKGLEWVGRIRSKYNNYATYYADSVKGRFTISRDDSKNSLYLQMNSLKTEDTAVYYCVRHGNFGNSYVSWFAYWGQGTLVTVSSGGGGSDKTHTCPPCPAPELLGPSVFLFPPKPKDTLMISRTPEVTCVVVDVSHEDPEVKFNWYVDGVEVHNAKTKPREEQYNSTYRVVSVLTVLHQDWLNGKEYKCKVSNKALGAPIEKTISKAKGQPREPQVYTLPPSREEMTKNQVSLWCLVKGFYPSDIAVEWESNGQPENNYKTTPPVLDSDGSFFLYSKLTVDKSRWQQGNVFSCSVMHEALHNHYTQKSLSLSPGKGGGGSGGGGSGGGGSGGGGSQVTLKESGPALVKPTQTLTLTCTFSGFSLSTSGTCVSWIRQPPGKALEWLATICWEDSKGYNPSLKSRLTISKDTSKNQAVLTMTNMDPVDTATYYCARREDSGYFWFPYWGQGTLVTVSS
chain 2: QVQLVQSGAEVKKPGASVKVSCKASGYTFTSYVMHWVRQKPGQGLEWIGYINPYNEGTESTDKFKGRATMTSDKSTSTVYMELSSLRSEDTAVYYCASIYYGYEGTYFGVWGQGTLVTVSSASTKGPSVFPLAPSSKSTSGGTAALGCLVKDYFPEPVTVSWNSGALTSGVHTFPAVLQSSGLYSLSSVVTVPSSSLGTQTYICNVNHKPSNTKVDKKVEPKSCGGGGSGGGGSGGGGSGGGGSQAVVTQEPSLTVSPGGTVTLTCRSSTGAVTTSNYANWVQQKPGQAPRGLIGGTNKRAPWTPARFSGSLLGGKAALTITGAQAEDEADYYCALWYSNLWVFGGGTKLTVLGGGGSDKTHTCPPCPAPELLGPSVFLFPPKPKDTLMISRTPEVTCVVVDVSHEDPEVKFNWYVDGVEVHNAKTKPREEQYNSTYRVVSVLTVLHQDWLNGKEYKCKVSNKALGAPIEKTISKAKGQPREPQVYTLPPSREEMTKNQVSLSCAVKGFYPSDIAVEWESNGQPENNYKTTPPVLDSDGSFFLVSKLTVDKSRWQQGNVFSCSVMHEALHNRFTQKSLSLSPGKGGGGSGGGGSGGGGSGGGGSNIQMTQSPSSLSASVGDRVTITCKAGQNVNNYLAWYQQKPGKAPKVLIFNANSLQTGVPSRFSGSGSGTDFTLTISSLQPEDFATYYCQQYNSWPTFGGGTKVEIK
chain 3: EIVLTQSPATLSLSPGERATLSCRASSSVSYMHWYQQKPGQAPRPWIYATSNLASGIPARFSGSRSGTDYTLTISSLEPEDFAVYYCQQWSSNTLTFGGGTKVEIKRTVAAPSVFIFPPSDEQLKSGTASVVCLLNNFYPREAKVQWKVDNALQSGNSQESVTEQDSKDSTYSLSSTLTLSKADYEKHKVYACEVTHQGLSSPVTKSFNRGEC
notes: anti-B7H3/CD3/PD-1
Question: Does B2 bind (PD-1)?
Answer: binds
